Experimental findings from paper PMC10352136 (2023) are described below.

The target in assay [1] is T1, SNX1-BT*:SNX5-BT* heterodimer (human, UniProt Q13596 1-522; Q9Y5X3 1-404). As to the kind of experiment: ITC; representative single experiment. Background: In ITC the heat of successive injections is recorded.
The target in assay [2] is T2, SNX1-SAH^3A:SNX5-SAH^3A heterodimer (human, UniProt Q13596 1-522; Q9Y5X3 1-404). As to the kind of experiment: ITC; representative single experiment.
Assay [3] addresses T1, SNX1-BT*:SNX5-BT* heterodimer. Description: ITC.
Assay [4] concerns the target T2, SNX1-SAH^3A:SNX5-SAH^3A heterodimer. Description: ITC.

The term Kd denotes a measure of binding affinity in units of concentration. High values mean weaker binding, low ones tighter binding.

T2 sequence (Q13596 whole entry, chain 1 of 2): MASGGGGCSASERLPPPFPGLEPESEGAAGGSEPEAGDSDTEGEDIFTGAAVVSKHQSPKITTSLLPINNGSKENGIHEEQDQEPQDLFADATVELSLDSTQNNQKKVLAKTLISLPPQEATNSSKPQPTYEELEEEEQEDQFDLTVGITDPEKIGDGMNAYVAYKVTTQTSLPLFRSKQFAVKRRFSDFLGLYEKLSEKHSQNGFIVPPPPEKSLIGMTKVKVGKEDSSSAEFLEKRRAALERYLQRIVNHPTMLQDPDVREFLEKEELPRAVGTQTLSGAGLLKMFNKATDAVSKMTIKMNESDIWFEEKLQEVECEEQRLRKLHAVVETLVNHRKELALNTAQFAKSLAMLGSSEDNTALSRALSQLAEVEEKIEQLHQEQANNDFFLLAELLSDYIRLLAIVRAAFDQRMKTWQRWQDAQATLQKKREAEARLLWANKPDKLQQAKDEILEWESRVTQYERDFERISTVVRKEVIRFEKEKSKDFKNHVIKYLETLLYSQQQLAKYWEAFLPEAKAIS
T2 sequence (Q9Y5X3 whole entry, chain 2 of 2): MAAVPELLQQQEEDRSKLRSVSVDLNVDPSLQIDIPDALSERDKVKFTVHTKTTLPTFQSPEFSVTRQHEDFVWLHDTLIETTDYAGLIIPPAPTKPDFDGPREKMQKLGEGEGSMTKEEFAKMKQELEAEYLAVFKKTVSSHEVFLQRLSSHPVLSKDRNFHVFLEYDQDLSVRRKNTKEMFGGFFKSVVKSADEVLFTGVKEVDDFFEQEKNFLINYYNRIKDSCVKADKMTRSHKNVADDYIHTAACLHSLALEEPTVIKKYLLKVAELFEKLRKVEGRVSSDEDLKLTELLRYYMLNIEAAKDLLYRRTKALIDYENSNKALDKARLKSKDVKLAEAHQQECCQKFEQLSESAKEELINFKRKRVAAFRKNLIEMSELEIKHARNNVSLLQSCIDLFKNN
T1 sequence (Q13596 whole entry, chain 1 of 2): as the sequence (Q13596 whole entry, chain 1 of 2) above
T1 sequence (Q9Y5X3 whole entry, chain 2 of 2): as the sequence (Q9Y5X3 whole entry, chain 2 of 2) above

SNVSYKYSKVNKEEETDENETEWLMEEIQ: the Kd was 9.96 µM in assay [1], 4.64 µM in assay [2], 10.4 µM in assay [3] and 5.06 µM in assay [4].
